Laboratory results from patent publication US20130323282A1.

Experiments:
[1] = target: CD81 MBP-LEL113-201 (maltose-binding protein linked to the CD81 large extracellular loop, residues 113 to 201), dimeric form (UniProt P60033); test: SPR; 1:1 model for dimer/trimer, two-state model for monomer
[2] = target: CD81 MBP-LEL113-201 (maltose-binding protein linked to the CD81 large extracellular loop, residues 113 to 201), dimeric form (UniProt P60033); test: SPR; 1:1 Langmuir model

Chain of UniProt P60033 (P60033 113-201 limits assumed): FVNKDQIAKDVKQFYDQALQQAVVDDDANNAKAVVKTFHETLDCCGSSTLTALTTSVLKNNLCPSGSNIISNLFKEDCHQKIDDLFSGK

| Substance | fold higher affinity than the monomeric protein [1] [fold] | fold higher affinity than the WT dimer [2] [fold] |
| --- | --- | --- |
| H77c ΔHVR1+2+3 E2661-his, trimer (putative) (from UniProt P27958 384-661) (ligand) | 10 |  |
| H77c WT E2661-his, dimer (from UniProt P27958 384-661) (ligand) | 10 |  |
| H77c WT E2661-his, trimer (putative) (from UniProt P27958 384-661) (ligand) | 10 |  |
| H77c ΔHVR1+2+3 E2661-his, dimer (from UniProt P27958 384-661) (ligand) | 10 | 2 |
